Results from patent US20250332297A1, “DLL3-SPECIFIC BINDING CONSTRUCTS AND THEIR USE IN RADIOTHERAPY” (MOLECULAR PARTNERS AG, priority 2024, published 2025).

Experiments:
[1] = Pharmacokinetic analysis in WT BALBc mice (serum, ELISA); assay type: in vivo, mouse; conditions: natural lead-labelled DOTAM conjugate 1 mg/kg i.v., Tables 16, 17
From the text: The pharmacokinetic (PK) properties of lead-labelled DARPin (MAM160, MAM279, MAM282, MAM283) conjugates were investigated in mice, including to determine the terminal half-life (or serum half-life) of these conjugates.
In brief, DARPins MAM279, MAM283, MAM160 and MAM282 were conjugated to the chelator DOTAM, via a C-terminal Cysteine containing tag and a connector, as described in Example 3. The conjugates were then labelled with natural lead (Pb). The protein components of the conjugates corresponded to SEQ ID NOs: 15 to 18, respectively. These lead-labelled DARPin conjugates were injected i.v. at 1 mg/kg into WT BALBc mice. Serum was collected 2 min, 10 min, 30 min, 1 h, 4 h, 24 h, 48 h, and 72 h post-injection. DARPins were detected and measured by ELISA. The data were expressed as the DARPin concentration in serum (nmol/L).
In brief, lead-labelled MAM279 conjugate, as described in Example 13, was injected i. at 0.1 mg/kg or at 1 mg/kg into the tail vein of WT BALBc mice. Serum was collected 2 min, 10 min, 30 min, 1 h, 4 h, 24 h, 48 h, and 72 h post-injection for MAM279 conjugate injected at 1 mg/kg, and 2 min, 30 min, 4 h, 24 h, 30 h, 48 h, 72 h, 96 h, and 168 h post-injection for MAM279 conjugate injected at 0.1 mg/kg. DARPins were detected and measured by ELISA. The data were expressed as the DARPin concentration in serum (nmol/L).
In brief, natural lead-labelled MAM279 conjugate, as described in Example 13, was injected i.v. at different doses (0.001 mg/kg, 0.01 mg/kg, 0.1 mg/kg, or 1 mg/kg) into the tail vein of WT BALBc mice. Similarly, unconjugated Rova was injected iv. at 1 mg/kg into the tail vein of WT BALBc mice. Serum was collected 2 min, 10 min, 30 min, 1 h, 4 h, 24 h, 48 h, and 72 h post-injection for MAM279 conjugate injected at 1 mg/kg, and 2 min, 30 min, 4 h, 24 h, 30 h, 48 h, 72 h, 96 h, and 168 h post-injection for MAM279 conjugate injected at 0.1 mg/kg, 0.01 mg/kg and 0.001 mg/kg. Serum was collected 2 min, 30 min, 4 h, 24 h, 30 h, 48 h, 72 h, 96 h, and 168 h post-injection for Rova antibody injected at 1 mg/kg. DARPins and Rova were detected and measured by ELISA. Rova PK characteristics were calculated with time points between 4 h and 168 h and MAM279 conjugate PK characteristics were calculated with time points between 4 h and 72 h. The data were expressed as the DARPin or Rova concentration in serum (nmol/L). Results are shown in FIGS. 19A and 19B and Table 22.

human serum albumin = human serum albumin (Homo sapiens, UniProt P02768); assay: SPR binding to human serum albumin (Example 1); parameters: purchased CSL; conditions: immobilized HSA, 1:1 Langmuir, Table 2
Experimental: (§1) Similarly, a SPR assay was used to determine the binding kinetics to human or mouse serum albumin. […] All analytes (3-fold dilution ranging from 1000-12.35 nM) were injected in succession for 240 s (25 μl/min) and dissociation was recorded for 600 s (25 μl/min). […] The obtained SPR traces were used to determine the ankyrin repeat protein-serum albumin interaction parameters, summarized in Table 2.

mouse serum albumin = target: T1, mouse serum albumin (Mus musculus, UniProt P07724); assay: SPR binding to mouse serum albumin (Example 1); conditions: immobilized MSA, 1:1 Langmuir, Table 2
T1 construct: purchased Sigma-Aldrich
Experimental: as §1

T1 sequence (P07724 25-608): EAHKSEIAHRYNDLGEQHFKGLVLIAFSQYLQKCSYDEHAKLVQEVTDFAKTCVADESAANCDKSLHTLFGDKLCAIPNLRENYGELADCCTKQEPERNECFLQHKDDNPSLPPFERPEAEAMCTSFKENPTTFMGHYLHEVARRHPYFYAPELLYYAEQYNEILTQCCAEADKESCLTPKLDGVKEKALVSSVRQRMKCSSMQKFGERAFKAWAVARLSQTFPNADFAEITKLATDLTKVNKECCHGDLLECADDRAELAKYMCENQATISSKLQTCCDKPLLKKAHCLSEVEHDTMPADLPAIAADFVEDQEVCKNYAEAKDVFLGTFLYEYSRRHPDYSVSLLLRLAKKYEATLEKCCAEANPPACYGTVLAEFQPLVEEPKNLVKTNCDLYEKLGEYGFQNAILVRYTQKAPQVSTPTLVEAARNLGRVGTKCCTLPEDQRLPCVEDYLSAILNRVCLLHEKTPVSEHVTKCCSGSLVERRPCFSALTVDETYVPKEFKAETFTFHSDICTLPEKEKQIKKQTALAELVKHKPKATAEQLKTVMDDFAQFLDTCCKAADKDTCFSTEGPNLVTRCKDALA

B1: MAM160: Two domain (2D) ankyrin repeat protein: serum albumin-specific domain (SEQ ID NO: 7), PT linker, DLL3-specific domain MAM120 (protein)
chain: DLGKKLLEAARAGQDDEVRELLKAGADVNAKDYFSHTPLHLAARNGHLKIVEVLLKAGADVNAKDFAGKTPLHLAADAGHLEIVEVLLKAGADVNAQDIFGKTPADIAADAGHEDIAEVLQKAAGSPTPTPTTPTPTPTTPTPTPTGSDLGTKLLSAAADGQDDEVRELLQAGADVNAKDLFGYTPLHLAAWRGHLEIVEVLLEAGADVNAKDAAGLTPLHLAAWFGHLEIVEVLLEAGADVNAQDVQGVTPADLAAKEGHEDIAEVLQQAA
modifications: Ankyrin repeat protein (MAM160)
For B1, the AUCINF_pred [1] was 4.5873 µM·h, the “AUC_% Back_Ext_pred” value [1] was 1% and the “AUC_% Extrap_pred” value [1] was 0%. For the same molecule, the AUClast [1] was 4.5787 µM·h, the CI_pred [1] was 0.123 mL/min/kg and the Cmax [1] was 625 nM. It also gave an HL_Lambda_z [1] of 8.3 h, a Tmax [1] of 1.98 min and a Vss_pred [1] of 0.060 L/kg. For the same molecule, the Kd (human serum albumin) was 95.9 nM, the “Koff HSA” value (human serum albumin) was 0.0105 s⁻¹ and the “Kon HSA” value (human serum albumin) was 110000 M⁻¹ s⁻¹. For the same molecule, the Kd (mouse serum albumin) was 336 nM, the “Koff MSA” value (mouse serum albumin) was 0.0271 s⁻¹ and the “Kon MSA” value (mouse serum albumin) was 80430 M⁻¹ s⁻¹.
